Source: article PMC2910040

Experiments:
[1] = molecular target: T1, BLMHM (BLM helicase module) (Homo sapiens, UniProt P54132 642-1290); assay: stopped-flow mdADP fluorescence amplitude titration
[2] = molecular target: T1, BLMHM (BLM helicase module); assay: as above; remark: listed apart in the source
[3] = molecular target: T1, BLMHM (BLM helicase module); assay: as above; remark: listed apart in the source
[4] = molecular target: T1, BLMHM (BLM helicase module); assay: fluorescence titration
[5] = molecular target: T1, BLMHM (BLM helicase module); assay: HEX fluorescence change

T1 sequence (P54132 642-1290): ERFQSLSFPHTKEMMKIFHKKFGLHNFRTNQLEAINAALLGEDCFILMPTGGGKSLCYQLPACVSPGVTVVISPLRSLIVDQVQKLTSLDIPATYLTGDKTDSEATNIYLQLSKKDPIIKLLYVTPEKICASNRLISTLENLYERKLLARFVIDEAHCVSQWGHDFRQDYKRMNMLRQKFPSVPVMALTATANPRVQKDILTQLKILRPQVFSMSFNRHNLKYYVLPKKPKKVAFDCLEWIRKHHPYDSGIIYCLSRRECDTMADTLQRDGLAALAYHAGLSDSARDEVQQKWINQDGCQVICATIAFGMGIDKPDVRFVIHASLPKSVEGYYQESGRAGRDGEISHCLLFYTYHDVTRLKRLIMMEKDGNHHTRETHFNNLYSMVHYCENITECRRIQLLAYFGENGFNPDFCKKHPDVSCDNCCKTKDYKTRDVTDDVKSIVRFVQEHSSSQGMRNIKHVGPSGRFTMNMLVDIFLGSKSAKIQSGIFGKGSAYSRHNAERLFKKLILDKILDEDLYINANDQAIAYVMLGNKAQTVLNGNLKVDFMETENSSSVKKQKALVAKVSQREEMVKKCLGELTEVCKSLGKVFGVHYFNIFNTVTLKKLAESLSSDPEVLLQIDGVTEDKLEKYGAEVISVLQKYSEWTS

**Q.** With TTTTTTTTTTTTTTTTTT (ssDNA) [dT18] as the binder, how does the Kd [1] read?
**A.** < 100 nM

B1: dT54 (ssDNA)
DNA: TTTTTTTTTTTTTTTTTTTTTTTTTTTTTTTTTTTTTTTTTTTTTTTTTTTTTT
**Q.** B1 was tested. Which Kd [2] did it give?
**A.** < 100 nM

**Q.** With TTTTTTTTTTTTTTTTTTTTTTTTTTTTTTTTTTTT (ssDNA) [dT36] as the binder, how does the Kd [3] read?
**A.** < 100 nM

B2: DNA_2 (5'-HEX-DNA_54mer) (ssDNA)
DNA: CGTTGCGCAATTAAGCTCTAAGCCATCCGCAAAAATGACCTCTTATCAAAAGGA
**Q.** Which Kd [4] does the source give for B2 here?
**A.** 100 ± 20 nM

**Q.** Does TTTTTTTTTTTTTTTTTTTT (ssDNA) [5'-HEX-dT20] bind [5]?
**A.** binds
